Results: patent US7214517B2, “α1,2-fucosyltransferase and DNA encoding the same” (Kyowa Hakko Kogyo Co., Ltd., priority 2001, dated 2007)

Tests used:
[1] = Production of fucosyllactose in the presence or absence of GDP (feedback inhibition, Example 8); assay type: biochemical; details: conclusion from Table 2
Procedure: (§1) Escherichia coli DH5α/pHMFT80 obtained in Example 5 was inoculated on 8 ml of LB medium [containing 10 g/l bacto tryptone (manufactured by Difco), 10 g/l yeast extract (manufactured by Difco) and 5 g/l NaCl] containing 50 μg/ml ampicillin in a test tube, and cultured at 30° C. for 12 hours. The culture was inoculated into 8 ml of LB medium containing 50 μg/ml ampicillin, with an inoculum size of 5%, and cultured at 30° C. for 2 hours. Then, isopropyl-β-D-thiogalactopyranoside was added thereto at a final concentration of 1 mmol/l, and further cultured at 30° C. for 8 hours. Wet cells were obtained by centrifuging 1 ml of the culture. Since the wet cells can be stored at −20° C., if necessary, it was able to use them by thawing-prior to use.
(§2) The reaction was carried out at 32° C. for 9 hours in 0.1 ml of a reaction solution composed of the wet cells of Escherichia coli DH5α/pHMFT80 prepared from 1 ml of the culture, 50 mmol/l of a citrate buffer (pH 7.0), 10 mmol/l MnCl2, 10 mmol/l lactose, 10 mmol/l GDP-fucose and 4 g/l Nymeen S-215.
Fucosyllactose was produced in a similar manner described in Example 7 in the presence or absence of 5 mmol/l guanosine 5′-diphosphate (GDP) using lactose as an acceptor carbohydrate.

[2] = Production of fucose-containing carbohydrate from different acceptor carbohydrates, wet cells as enzyme source (Example 7); assay type: biochemical; details: conclusion from Table 1
Procedure: as §1, §2
• Column: CarboPAC PA10 • Eluent:. A; H2O, B; 500 mmol/l NaOH • Gradient: Concentration of the eluent B at 0 minute is adjusted to 8% and increased to 20% spending 21 minutes. • Detector: Pulsed amperometry detector
Escherichia coli DH5α/pHMFT80 and Escherichia coli DH5α/pHPFT80 respectively obtained in. […]

B1: Helicobacter mustelae-derived α1,2-fucosyltransferase: Protein comprising the amino acid sequence of SEQ ID NO:1, from Helicobacter mustelae ATCC 43772 (protein, listed as Helicobacter mustelae)
chain: MDFKIVQVHGGLGNQMFQYAFAKSLQTHLNIPVLLDTTWFDYGNRELGLHLFPIDLQCASAQQIAAAHMQNLPRLVRGALRRMGLGRVSKEIVFEYMPELFEPSRIAYFHGYFQDPRYFEDISPLIKQTFTLPHPTEHAEQYSRKLSQILAAKNSVFVHIRRGDYMRLGWQLDISYQLRAIAYMAKRVQNLELFLFCEDLEFVQNLDLGYPFVDMTTRDGAAHWDMMLMQSCKHGIITNSTYSWWAAYLIKNPEKIIIGPSHWIYGNENILCKDWVKIESQFETKS
sensitivity to feedback inhibition by GDP compared to Helicobacter pylori-derived α1,2-fucosyltransferase [1]: more insensitive to feedback inhibition by GDP
activity compared to Helicobacter pylori-derived α1,2-fucosyltransferase [2]: higher activity
substrate specificity compared to Helicobacter pylori-derived α1,2-fucosyltransferase [2]: higher substrate specificity to lactose
